According to article PMC8717395 (JACS Au, 2021):

Assays:
[1] = target: NAD+-dependent formate dehydrogenase from Starkeya novella (Starkeya novella)
[2] = target: the molecule itself
[3] = substrate: O=CO; test: purified protein; settings: 2.0 mM NAD+, buffer B, 30 °C
[4] = substrate: NC(=O)c1ccc[n+]([C@@H]2O[C@H](COP(=O)([O-])OP(=O)(O)OC[C@H]3O[C@@H](n4cnc5c(N)ncnc54)[C@H](O)[C@@H]3O)[C@@H](O)[C@H]2O)c1; test: purified protein; settings: 20 mM formate, buffer B, 30 °C
[5] = substrate: NC(=S)c1ccc[n+]([C@@H]2O[C@H](COP(=O)(O)OP(=O)(O)OC[C@H]3O[C@@H](n4cnc5c(N)ncnc54)[C@H](OP(=O)(O)O)[C@@H]3O)[C@@H](O)[C@H]2O)c1; test: purified protein; settings: 15.0 mM NADH; buffer B; substrate inhibition term in fit

Molecule “NAD+-dependent formate dehydrogenase from Starkeya novella (enzyme)” has a stoichiometry N [1] of 2.

B1: soluble pyridine nucleotide transhydrogenase SthA from E. coli (enzyme, E. coli K-12, UniProt P27306 1-466, looked up)
chain: MPHSYDYDAIVIGSGPGGEGAAMGLVKQGARVAVIERYQNVGGGCTHWGTIPSKALRHAVSRIIEFNQNPLYSDHSRLLRSSFADILNHADNVINQQTRMRQGFYERNHCEILQGNARFVDEHTLALDCPDGSVETLTAEKFVIACGSRPYHPTDVDFTHPRIYDSDSILSMHHEPRHVLIYGAGVIGCEYASIFRGMDVKVDLINTRDRLLAFLDQEMSDSLSYHFWNSGVVIRHNEEYEKIEGCDDGVIMHLKSGKKLKADCLLYANGRTGNTDSLALQNIGLETDSRGQLKVNSMYQTAQPHVYAVGDVIGYPSLASAAYDQGRIAAQALVKGEATAHLIEDIPTGIYTIPEISSVGKTEQQLTAMKVPYEVGRAQFKHLARAQIVGMNVGTLKILFHRETKEILGIHCFGERAAEIIHIGQAIMEQKGGGNTIEYFVNTTFNYPTMAEAYRVAALNGLNRLF
B1 was tested, and the “stoichiometry N” value [2] was 8.

B2: Fdh (Ancylobacter novellus DSM 506) (protein)
chain: MAKILCVLYDDPVDGYPKTYARDDLPKIDHYPGGQTLPTPKAIDFTPGALLGSVSGELGLRKYLEANGHTFVVTSDKDGPDSVFERELVDADVVISQPFWPAYLTPERIAKAKNLKLALTAGIGSDHVDLQSAIDRGITVAEVTYCNSISVAEHVVMMILGLVRNYIPSHDWARKGGWNIADCVEHSYDLEGMTVGSVAAGRIGLAVLRRLAPFDVKLHYTDRHRLPEAVEKELGLVWHDTREDMYPHCDVVTLNVPLHPETEHMINDETLKLFKRGAYIVNTARGKLADRDAIVRAIESGQLAGYAGDVWFPQPAPKDHPWRTMKWEGMTPHISGTSLSAQARYAAGTREILECFFEGRPIRDEYLIVQGGALAGTGAHSYSKGNATGGSEEAAKFKKAG
B2 was tested, and the Km [3] was 2150 µM, the kcat [3] was 0.87 s⁻¹ and the Km [4] was 110 µM. The kcat [4] was 1.08 s⁻¹.

B3: SthA (Escherichia coli K-12) (protein)
chain: PHSYDYDAIVIGSGPGGEGAAMGLVKQGARVAVIERYQNVGGGCTHWGTIPSKALRHAVSRIIEFNQNPLYSDHSRLLRSSFADILNHADNVINQQTRMRQGFYERNHCEILQGNARFVDEHTLALDCPDGSVETLTAEKFVIACGSRPYHPTDVDFTHPRIYDSDSILSMHHEPRHVLIYGAGVIGCEYASIFRGMDVKVDLINTRDRLLAFLDQEMSDSLSYHFWNSGVVIRHNEEYEKIEGCDDGVIMHLKSGKKLKADCLLYANGRTGNTDSLALQNIGLETDSRGQLKVNSMYQTAQPHVYAVGDVIGYPSLASAAYDQGRIAAQALVKGEATAHLIEDIPTGIYTIPEISSVGKTEQQLTAMKVPYEVGRAQFKHLARAQIVGMNVGTLKILFHRETKEILGIHCFGERAAEIIHIGQAIMEQKGGGNTIEYFVNTTFNYPTMAEAYRVAALNGLNRLF
Work on B3 yielded a Km [5] of 30 µM and a kcat [5] of 19.9 s⁻¹.
